According to US20040110930A1:
Where “and” joins values, the source holds several entries; their conditions need not be identical. Identical values can stand only once.

Key:
38C13 scFv protein [1] = test: ELISA, coated 38C13 scFv 5 ug/ml; 0.195 ng Fab; background subtracted
38C13 scFv protein [2] = test: ELISA, coated 38C13 scFv 5 ug/ml; 0.049 ng Fab; background subtracted
38C13 scFv protein [3] = test: ELISA, coated 38C13 scFv 5 ug/ml; 50.000 ng Fab; background subtracted
38C13 scFv protein [4] = test: ELISA, coated 38C13 scFv 5 ug/ml; 0.098 ng Fab; background subtracted
38C13 scFv protein [5] = test: ELISA, coated 38C13 scFv 5 ug/ml; 1.563 ng Fab; background subtracted
38C13 scFv protein [6] = test: ELISA, coated 38C13 scFv 5 ug/ml; 3.125 ng Fab; background subtracted
38C13 scFv protein [7] = test: ELISA, coated 38C13 scFv 5 ug/ml; 12.500 ng Fab; background subtracted
38C13 scFv protein [8] = test: ELISA, coated 38C13 scFv 5 ug/ml; 0.781 ng Fab; background subtracted
38C13 scFv protein [9] = test: ELISA, coated 38C13 scFv 5 ug/ml; 25.000 ng Fab; background subtracted
38C13 scFv protein [10] = test: ELISA, coated 38C13 scFv 5 ug/ml; 6.250 ng Fab; background subtracted
38C13 scFv protein [11] = test: ELISA, coated 38C13 scFv 5 ug/ml; 0.391 ng Fab; background subtracted
38C13 scFv protein [12] = test: ELISA, coated 38C13 scFv 5 ug/ml; 37.500 ng MAb; background subtracted
38C13 scFv protein [13] = test: ELISA, coated 38C13 scFv 5 ug/ml; 0.586 ng MAb; background subtracted
38C13 scFv protein [14] = test: ELISA, coated 38C13 scFv 5 ug/ml; 18.750 ng MAb; background subtracted
38C13 scFv protein [15] = test: ELISA, coated 38C13 scFv 5 ug/ml; 75.000 ng MAb; background subtracted
38C13 scFv protein [16] = test: ELISA, coated 38C13 scFv 5 ug/ml; 2.344 ng MAb; background subtracted
38C13 scFv protein [17] = test: ELISA, coated 38C13 scFv 5 ug/ml; 0.293 ng MAb; background subtracted
38C13 scFv protein [18] = test: ELISA, coated 38C13 scFv 5 ug/ml; 150.000 ng MAb; background subtracted
38C13 scFv protein [19] = test: ELISA, coated 38C13 scFv 5 ug/ml; 9.375 ng MAb; background subtracted
38C13 scFv protein [20] = test: ELISA, coated 38C13 scFv 5 ug/ml; 0.146 ng MAb; background subtracted
38C13 scFv protein [21] = test: ELISA, coated 38C13 scFv 5 ug/ml; 1.172 ng MAb; background subtracted
38C13 scFv protein [22] = test: ELISA, coated 38C13 scFv 5 ug/ml; 4.688 ng MAb; background subtracted

| Binder | A450 (38C13 scFv protein [1]) | A450 (38C13 scFv protein [2]) | A450 (38C13 scFv protein [3]) | A450 (38C13 scFv protein [4]) | A450 (38C13 scFv protein [5]) | A450 (38C13 scFv protein [6]) | A450 (38C13 scFv protein [7]) | A450 (38C13 scFv protein [8]) | A450 (38C13 scFv protein [9]) | A450 (38C13 scFv protein [10]) | A450 (38C13 scFv protein [11]) | A450 (38C13 scFv protein [12]) | A450 (38C13 scFv protein [13]) | A450 (38C13 scFv protein [14]) | A450 (38C13 scFv protein [15]) | A450 (38C13 scFv protein [16]) | A450 (38C13 scFv protein [17]) | A450 (38C13 scFv protein [18]) | A450 (38C13 scFv protein [19]) | A450 (38C13 scFv protein [20]) | further results |
| --- | --- | --- | --- | --- | --- | --- | --- | --- | --- | --- | --- | --- | --- | --- | --- | --- | --- | --- | --- | --- | --- |
| pLSBC1792 produced S1C5 Fab (Fab, V domains shown) VH: EVKLEQSGAELVKPGASVKISCKASGYTFTDHVIHWVKQRPEQGLEWIGFISPGNGDIRYNEKFKDKATLTADKSSSTAYMQLNSLTSEDSAVYFCKRSFYYYDDNYGDYWGQGTTLTVSS VL: QIVLTQSPAIMSASLGERVTMTCTASSSVSSSYFHWYQQKPGSSPKLWIYTTSNLASGVPARFSGSGSGTSYSLTISSMEAEDAATYYCHQYHRSPLTFGAGTKLELKR | 0.049 A450 and 0.041 A450 | 0.01 A450 and 0.011 A450 | 0.524 A450 and 0.504 A450 | 0.025 A450 and 0.019 A450 | 0.263 A450 and 0.247 A450 | 0.366 A450 and 0.35 A450 | 0.487 A450 and 0.485 A450 | 0.168 A450 and 0.154 A450 | 0.521 A450 and 0.519 A450 | 0.468 A450 and 0.449 A450 | 0.09 A450 and 0.094 A450 |  |  |  |  |  |  |  |  |  |  |
| Control S1C5 MAb from mouse ascites fluid (antibody, V domains shown) VH: EVKLEQSGAELVKPGASVKISCKASGYTFTDHVIHWVKQRPEQGLEWIGFISPGNGDIRYNEKFKDKATLTADKSSSTAYMQLNSLTSEDSAVYFCKRSFYYYDDNYGDYWGQGTTLTVSS VL: QIVLTQSPAIMSASLGERVTMTCTASSSVSSSYFHWYQQKPGSSPKLWIYTTSNLASGVPARFSGSGSGTSYSLTISSMEAEDAATYYCHQYHRSPLTFGAGTKLELKR |  |  |  |  |  |  |  |  |  |  |  | 0.443 A450 and 0.497 A450 | 0.053 A450 and 0.047 A450 | 0.476 A450 and 0.429 A450 | 0.532 A450 and 0.515 A450 | 0.18 A450 and 0.179 A450 | 0.025 A450 and 0.023 A450 | 0.517 A450 and 0.538 A450 | 0.39 A450 and 0.395 A450 | 0.012 A450 and 0.01 A450 | A450 (38C13 scFv protein [21]): 0.105 A450 and 0.096 A450; A450 (38C13 scFv protein [22]): 0.283 A450 and 0.284 A450 |

The next lines start with results.

| A450 (38C13 scFv protein [1]) | A450 (38C13 scFv protein [2]) | A450 (38C13 scFv protein [3]) | A450 (38C13 scFv protein [4]) | A450 (38C13 scFv protein [5]) | A450 (38C13 scFv protein [6]) | A450 (38C13 scFv protein [7]) | A450 (38C13 scFv protein [8]) | A450 (38C13 scFv protein [9]) | A450 (38C13 scFv protein [10]) | A450 (38C13 scFv protein [11]) | A450 (38C13 scFv protein [12]) | A450 (38C13 scFv protein [13]) | A450 (38C13 scFv protein [14]) | A450 (38C13 scFv protein [15]) | A450 (38C13 scFv protein [16]) | A450 (38C13 scFv protein [17]) | A450 (38C13 scFv protein [18]) | A450 (38C13 scFv protein [19]) | A450 (38C13 scFv protein [20]) | Binder | further results |
| --- | --- | --- | --- | --- | --- | --- | --- | --- | --- | --- | --- | --- | --- | --- | --- | --- | --- | --- | --- | --- | --- |
| 0.03 A450 and 0.023 A450 | 0.008 A450 and 0.003 A450 | 0.481 A450 and 0.516 A450 | 0.009 A450 and 0.018 A450 | 0.168 A450 and 0.171 A450 | 0.273 A450 and 0.266 A450 | 0.46 A450 and 0.465 A450 | 0.095 A450 and 0.094 A450 | 0.498 A450 and 0.51 A450 | 0.346 A450 and 0.363 A450 | 0.047 A450 and 0.05 A450 |  |  |  |  |  |  |  |  |  | control S1C5 Fab produced from mouse ascites MAb using the ImmunoPure Fab Kit (Fab, V domains shown) VH: EVKLEQSGAELVKPGASVKISCKASGYTFTDHVIHWVKQRPEQGLEWIGFISPGNGDIRYNEKFKDKATLTADKSSSTAYMQLNSLTSEDSAVYFCKRSFYYYDDNYGDYWGQGTTLTVSS VL: QIVLTQSPAIMSASLGERVTMTCTASSSVSSSYFHWYQQKPGSSPKLWIYTTSNLASGVPARFSGSGSGTSYSLTISSMEAEDAATYYCHQYHRSPLTFGAGTKLELKR |  |
|  |  |  |  |  |  |  |  |  |  |  | 0.477 A450 and 0.482 A450 | 0.03 A450 and 0.029 A450 | 0.39 A450 and 0.397 A450 | 0.514 A450 and 0.517 A450 | 0.106 A450 and 0.113 A450 | 0.014 A450 and 0.015 A450 | 0.521 A450 and 0.52 A450 | 0.295 A450 and 0.307 A450 | 0.007 A450 and 0.004 A450 | pLSBC1798 produced S1C5 MAb (antibody, V domains shown) VH: EVKLEQSGAELVKPGASVKISCKASGYTFTDHVIHWVKQRPEQGLEWIGFISPGNGDIRYNEKFKDKATLTADKSSSTAYMQLNSLTSEDSAVYFCKRSFYYYDDNYGDYWGQGTTLTVSS VL: QIVLTQSPAIMSASLGERVTMTCTASSSVSSSYFHWYQQKPGSSPKLWIYTTSNLASGVPARFSGSGSGTSYSLTISSMEAEDAATYYCHQYHRSPLTFGAGTKLELKR | A450 (38C13 scFv protein [21]): 0.061 A450; A450 (38C13 scFv protein [22]): 0.198 A450 and 0.194 A450 |
